Assay [1] addresses T1, wild-type murine IL-11Rα on stably transfected Ba/F3 cells (with co-receptor murine gp130) (murine, UniProt Q64385 24-432).
T1 sequence (looked up): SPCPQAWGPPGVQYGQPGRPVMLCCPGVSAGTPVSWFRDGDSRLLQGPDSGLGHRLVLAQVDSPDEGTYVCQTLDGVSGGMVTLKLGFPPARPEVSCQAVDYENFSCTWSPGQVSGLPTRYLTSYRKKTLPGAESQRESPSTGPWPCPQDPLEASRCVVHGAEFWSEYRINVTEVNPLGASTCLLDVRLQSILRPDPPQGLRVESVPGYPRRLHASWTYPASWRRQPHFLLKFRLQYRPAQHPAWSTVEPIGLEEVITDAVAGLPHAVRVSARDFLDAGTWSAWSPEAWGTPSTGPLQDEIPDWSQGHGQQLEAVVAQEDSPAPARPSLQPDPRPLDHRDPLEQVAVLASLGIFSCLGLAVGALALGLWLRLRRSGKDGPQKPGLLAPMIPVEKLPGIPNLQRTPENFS
In words: cell-based or functional assay.

Assay [2] addresses T2, mIL-11Rα-Fc (murine, UniProt Q64385 24-372).
T2 construct: Coated on the ELISA plates; not shown: Fc part of the bought fusion protein
T2 sequence (looked up): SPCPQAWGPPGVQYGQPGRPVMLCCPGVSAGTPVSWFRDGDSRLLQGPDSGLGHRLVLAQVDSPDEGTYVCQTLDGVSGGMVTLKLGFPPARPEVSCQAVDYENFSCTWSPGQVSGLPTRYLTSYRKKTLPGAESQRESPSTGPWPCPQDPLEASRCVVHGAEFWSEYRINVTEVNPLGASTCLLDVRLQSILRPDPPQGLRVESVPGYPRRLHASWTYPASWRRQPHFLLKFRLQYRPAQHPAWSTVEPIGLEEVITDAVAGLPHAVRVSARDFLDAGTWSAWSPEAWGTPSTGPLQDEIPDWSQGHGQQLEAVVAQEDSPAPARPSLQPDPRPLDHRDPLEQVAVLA
Nature of the assay: IL-11Rα binding ELISA. (In general: In an ELISA, binding on a coated surface is turned into a signal by an enzyme label.)

For assay [3], the target named is T2, mIL-11Rα-Fc. Nature of the assay: competition ELISA, soluble protein against phage displayed IL-11 variants on coated mIL-11Rα-Fc. On the procedure: The affinity of the selected IL-11 mutants for IL-11Rα was determined in a competition ELISA experiment. […] After incubation for 2 hours at room temperature, the plates were washed and bound phage were then labeled with an anti-M13 polyclonal antibody conjugated to horseradish peroxidase. After the removal of excess antibody by washing with PBS containing 0.05% Tween 20, TMB substrate was added to each well and incubated for 10 minutes before the reaction was quenched by the addition of 2M phosphoric acid. Absorbance at 450 nm was then determined for each well by analysis on a microtitre plate reader.
Clear differences were observed between the affinities of the mIL-11-W147A and mutant proteins for binding to IL-11Rα-Fc.

The target in assay [4] is T1, wild-type murine IL-11Rα on stably …. Nature of the assay: cell-based or functional assay. This is another data set of the same source.

Positions count from the first letter of the chain named. In names and notes the source's numbering stands.

These results are taken from patent US20110300100A1 (CSL, published 2011).

B1: Δ1.21 (PEGylated and truncated modified form of clone 1.21, W147C, amino acids 10-178 of SEQ ID NO:12) (ligand)
chain: VSSDPRADLDSAVLLTRSLLADTRQLAAQMRDKFPADGDHSLDSLPTLPAIDYTLGSLQLPGVLTRLRVDLMSYLRHVQWLRRAGGPSLKTLEPELGALQARLERLLRRLQLLMSRLALPQAAPDQPVIPLGPPASACGSIRAAHAILGGLHLTLDWAVRGLLLLKTRL
modifications: 40 kDa mPEG2-maleimide on Cys147 (position corresponding to position 147 of SEQ ID NO:12)
notes: His-tag and first nine residues (which carried the optimized thrombin site, residues 6 and 7 to L and V) removed by thrombin; N-terminus Val10-Ser11-Ser12; also called PEGylated mutein; pegylated mouse IL-11 mutein Δ1.21
With B1, the “fold reduction of the ability to antagonize IL-11-induced Ba/F3 cell proliferation, relative to non-PEGylated 1.21” value in assay [1] is about 10 fold. Moreover, the “fold reduction of binding affinity relative to non-PEGylated 1.21” value with mIL-11Rα-Fc [2] was about 5 fold.

B2: IL-11 mutant 1B.382 (murine FMQIQ and W147A IL-11 mutein), N-terminal hexahistidine-tagged (ligand)
chain: PGPPAGSPRVSSDPRADLDSAVLLTRSLLADTRQLAAQMRDKFPADGDHSLDSLPTLFMQIQTLGSLQLPGVLTRLRVDLMSYLRHVQWLRRAGGPSLKTLEPELGALQARLERLLRRLQLLMSRLALPQAAPDQPVIPLGPPASAAGSIRAAHAILGGLHLTLDWAVRGLLLLKTRL
notes: Mutein of mature murine IL-11 with FMQIQ at 58-62 and W147A; also called clone 1B.382; not shown: N-terminal hexahistidine tag from the modified pET15b vector
Regarding B2, the “fold higher affinity relative to W147A IL-11” value in the assay with mIL-11Rα-Fc [3] came out at 20 fold. For the same molecule, the “IC50 (nM), inhibition of IL-11-induced proliferation of IL-11Rα/gp130 Ba/F3 cells (MTT)” value (from here on “IC50 (nM), inhibition”) in assay [4] came out at 0.49 nM.

B3: mIL-11-W147A, N-terminal hexahistidine-tagged (ligand, not shown: small tags and cut ends)
chain: B2 chain with F58A, Q60S, I61A, Q62G
Regarding B3, in assay [4], the “IC50 (nM), inhibition” value amounted to 14 nM.

B4: IL-11 mutant 1.21 (murine PAIDY and W147A IL-11 mutein), N-terminal hexahistidine-tagged (ligand)
chain: B2 chain with F58P, M59A, Q60I, I61D, Q62Y
notes: Mutein of mature murine IL-11 with PAIDY at 58-62 and W147A; not shown: N-terminal hexahistidine tag from the modified pET15b vector
As to B4, the “fold higher affinity relative to W147A IL-11” value with mIL-11Rα-Fc [3] was determined as 20 fold. Besides, the “IC50 (nM), inhibition” value in assay [4] is 0.54 nM.
